Measured values taken from paper PMC4266533, “Kinetics of the early events of GPCR signalling” (Febs Letters, 2014).

Legend:
[1] = target: T1, FLAG-NTS1 (neurotensin receptor type 1) reconstituted into PC:PG nanodiscs, neurotensin-bound (UniProt P20789 1-424); assay: SPR; FLAG-NTS1-PC:PG nanodiscs (2500 RU) captured on an L1 chip, empty PC:PG nanodiscs (2000 RU) in the reference cell; His6-Gs as analyte, 62.5-1000 nM, 150 s per concentration at 50 ul/min; 1:1 Langmuir and heterogeneous ligand binding fits; settings: both partners purified
T1 construct: Neurotensin (NT), 13 amino acid peptide, agonist kept in excess (5 uM) with the receptor; The receptor stood in ~10 nm lipid nanodiscs with the belt protein MSP1D1 (Addgene plasmid 20061, made in E. coli BL21(DE3)); MSP1D1 is not written as a chain; Primarily one receptor per disc (50:1 MSP1D1:FLAG-NTS1); also called FLAG-NTS1-PC:PG nanodiscs; NTS1-nanodiscs

[2] = target: T1, FLAG-NTS1 (neurotensin receptor type 1) …; assay: SPR; Gα amine-coupled to a CM5 chip (Biacore T100/T200); NT-bound (5 uM NT) anti-FLAG-enriched FLAG-NTS1-PC:PG nanodiscs as analyte, serially diluted from 660 nM or 400 nM; single cycle kinetics at 30-50 ul/min; empty nanodiscs as reference, double-referenced; 50 mM Tris-HCl pH 7.4, 100 mM NaCl, 5 mM MgCl2; heterogeneous ligand binding global fit; settings: both partners purified

T1 sequence (P20789 whole entry): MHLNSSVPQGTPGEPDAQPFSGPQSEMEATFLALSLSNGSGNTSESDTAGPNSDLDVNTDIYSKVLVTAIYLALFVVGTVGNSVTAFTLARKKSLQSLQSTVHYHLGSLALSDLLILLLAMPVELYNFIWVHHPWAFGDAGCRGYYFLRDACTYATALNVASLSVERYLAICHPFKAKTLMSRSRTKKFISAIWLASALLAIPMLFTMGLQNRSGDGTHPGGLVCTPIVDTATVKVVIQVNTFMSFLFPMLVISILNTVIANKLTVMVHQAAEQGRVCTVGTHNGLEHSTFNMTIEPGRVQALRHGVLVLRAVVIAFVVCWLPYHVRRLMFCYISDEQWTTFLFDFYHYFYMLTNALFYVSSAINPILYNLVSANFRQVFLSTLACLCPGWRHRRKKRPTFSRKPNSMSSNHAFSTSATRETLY

Kd [1]: 65 nM
Kd [2]: 9 nM
B1: His6-Gαs (alpha subunit of the stimulatory G protein Gs) (natural protein, UniProt P63092 1-394, looked up)
chain: MGCLGNSKTEDQRNEEKAQREANKKIEKQLQKDKQVYRATHRLLLLGAGESGKSTIVKQMRILHVNGFNGEGGEEDPQAARSNSDGEKATKVQDIKNNLKEAIETIVAAMSNLVPPVELANPENQFRVDYILSVMNVPDFDFPPEFYEHAKALWEDEGVRACYERSNEYQLIDCAQYFLDKIDVIKQADYVPSDQDLLRCRVLTSGIFETKFQVDKVNFHMFDVGGQRDERRKWIQCFNDVTAIIFVVASSSYNMVIREDNQTNRLQEALNLFKSIWNNRWLRTISVILFLNKQDLLAEKVLAGKSKIEDYFPEFARYTTPEDATPEPGEDPRVTRAKYFIRDEFLRISTASGDGRHYCYPHFTCAVDTENIRRVFNDCRDIIQRMHLRQYELL
notes: Alpha subunit of Gs; construct donated by Renaud Wagner (University of Strasbourg); Also tested with GTPγS (same protein, assay a2); also called His6-Gs; His-Gαs
